{
  "source": "paper PMC2762092",
  "about": "(The Journal of Cell Biology, 2009)",
  "binders": {"B1": {"name": "GST–IFE-5 (natural protein)", "chain": "MTELTTPIYPLQRNWSWWFLNDDRNASWQDRLKKVYTFNTVPEFWAFYEAILPPSGLNDLCDYNVFRDDIQPKWEAPENWDGGRWLIIINKGKTPEVLDAVWLEILLALIGEQFGKDMESICGLVCNVRGQGSKISVWTKNCNDDDTNMRIGVVLKEKLMAAASKAHSKPLFDVIHYQTHRNCVKKTTSALKYKFSLKSIV"}, "B2": {"name": "GST–IFE-2 (natural protein)", "chain": "MSEEPVAAPGTISHPVYKLKRNWTWWYLNDERNKSWEERLKNVKTFSSVGEFWALHDSIKPPSGLNPPSDYNVFRDGIEPMWEVPQNQNGGRWLITIEKGRTPEIMDTIWTEILMAMIGEQFSDDIESLCGIVCNVRGKGSKISVWTTNSADDGANLRIGGVLKQVLNNASMIHQRPLYDVLRYEDHESCQKKTSSGVKAKHAIYAVEPREEKAPVPVSTETPATPAT"}, "B3": {"name": "GST–IFE-1 (natural protein)", "chain": "MTETEQTTAPIYPLKRNWTWWYLNDERNKSWEDRLKKVYTFNTVSEFWALYDAIRPPSGLNALCDYNVFRDDIQPMWEVPENSNGGRWLIVIDKGKTPEMVDAIWLEILMALVGEQFGKDMESICGLVCNVRGKGSKISVWTKDCNDDETNMRIGVVLKEKLMAASKDHSKPLFDVIRYEDHESCQKKTSSVVKAKLSLHSSDAPVAEKSAV"}},
  "assay_in_all_cases": "pull-down",
  "key": {"[1]": {"target": "T1, 6xHis-tagged SPN-2 (full-length) (C. elegans, UniProt Q20898 1-761)", "T1 sequence": "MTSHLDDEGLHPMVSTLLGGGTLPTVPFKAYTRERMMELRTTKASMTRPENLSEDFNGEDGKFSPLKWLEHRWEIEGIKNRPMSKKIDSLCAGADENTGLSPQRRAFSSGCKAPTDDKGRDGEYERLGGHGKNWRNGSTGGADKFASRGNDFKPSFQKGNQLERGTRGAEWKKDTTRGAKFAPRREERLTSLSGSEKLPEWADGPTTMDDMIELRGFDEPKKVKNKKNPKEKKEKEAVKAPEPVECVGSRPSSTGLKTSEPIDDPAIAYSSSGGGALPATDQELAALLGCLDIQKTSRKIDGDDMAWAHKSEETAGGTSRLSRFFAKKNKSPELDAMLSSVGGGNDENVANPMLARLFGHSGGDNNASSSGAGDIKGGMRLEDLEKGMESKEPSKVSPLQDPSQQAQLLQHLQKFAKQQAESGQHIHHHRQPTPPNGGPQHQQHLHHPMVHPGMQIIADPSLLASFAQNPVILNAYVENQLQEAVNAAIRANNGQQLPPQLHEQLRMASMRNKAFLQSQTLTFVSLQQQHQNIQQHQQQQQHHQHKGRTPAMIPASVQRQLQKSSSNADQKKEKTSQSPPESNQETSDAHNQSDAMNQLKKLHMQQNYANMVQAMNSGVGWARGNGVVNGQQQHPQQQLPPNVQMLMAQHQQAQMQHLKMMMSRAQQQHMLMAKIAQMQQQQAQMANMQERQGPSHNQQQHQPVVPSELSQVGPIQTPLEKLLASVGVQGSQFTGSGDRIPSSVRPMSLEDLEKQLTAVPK"}, "[2]": {"target": "T2, 6xHis-tagged SPN-2N (SPN-2 N-terminal fragment, 1-399 aa) (C. elegans, UniProt Q20898 1-399)", "T2 sequence": "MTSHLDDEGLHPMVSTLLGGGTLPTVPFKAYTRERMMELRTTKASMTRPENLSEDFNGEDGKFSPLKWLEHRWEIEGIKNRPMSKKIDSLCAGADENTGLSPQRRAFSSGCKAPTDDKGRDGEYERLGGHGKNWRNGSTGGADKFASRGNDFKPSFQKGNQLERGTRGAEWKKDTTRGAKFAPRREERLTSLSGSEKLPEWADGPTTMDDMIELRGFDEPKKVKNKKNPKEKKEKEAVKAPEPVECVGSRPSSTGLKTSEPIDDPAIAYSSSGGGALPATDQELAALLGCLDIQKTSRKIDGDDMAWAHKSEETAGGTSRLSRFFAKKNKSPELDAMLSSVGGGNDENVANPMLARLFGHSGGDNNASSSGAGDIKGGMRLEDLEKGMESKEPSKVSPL"}, "[3]": {"target": "T1, 6xHis-tagged SPN-2 (full-length)", "remark": "listed apart in the source"}},
  "data": [
    {"binder": "B1", "values": [
      {"measurement": "binding result", "setting": "[1]", "result": "binds"},
      {"measurement": "binding result", "setting": "[2]", "result": "binds"}
    ]},
    {"binder": "B2", "values": [
      {"measurement": "binding result", "setting": "[1]", "result": "binds"},
      {"measurement": "binding result", "setting": "[2]", "result": "binds"}
    ]},
    {"binder": "B3", "values": [
      {"measurement": "Kd", "setting": "[3]", "result": 33, "unit": "nM"}
    ]}
  ]
}
